Reference: the DeepSol protein solubility set

Test: soluble on expression in E. coli; label from the status in PepcDB or PDB records

| Sequence | soluble on expression in E. coli |
| --- | --- |
| MAHHHHHHMSEDESNSVSCSLSLESDGYSDEEYDTNLNKLIENESLNWIFVGGKGGVGKTTTSCSIAVQLSKRRESVLLLSTDPAHNTSDAFNQKFTNQPTLINSFDNLYCMEIDTNYSENTAFKLNKKEMFDNILPELLHSFPGIDEALCFAELMQSIKNMKYSVIVFDTAPTGHTLRLLAFPDLLKKALGYLINIREKLKGTLNVLKNFTNNEMEFDSLYEKINHLNAMSSSIQANFQNPMKTTFVCVCIPEFLSVYETERLIQELTKKNISCYNIVVNQVVFPLDSPNVNLENCKNLLSQIKNEQIQSYFNDLISKTEELEDVYISRRKLQSKYLTQIKNLYSNDFHIVCMPQLKNEIRGLNNISSFSEMLLQSKDIPIYKDNL | not soluble |
| SLNIKDEHIDSVCSLLDQLVGNVSFKNLFTGYGLFHKEETMFAIWQNKKLYLRGEGVLAIQLTKLGCEPFTTNELNKRFVLSQYYALSDQILRSNRLCRKLIILSIKQILEQKLECTLRKLNRLKDLPNLTIKHERALIKVGITNVAMLREIGAENALVELKKSGSGATLDFYWKLVCALQNKNSQMLSQAEKERLLKKLNEVWRKNGLKGYRKLDDE | not soluble |
| MLNTKSPSPANSNYDFALRHERVKLIARALKQFGVYITRTTQAMREVASCLSLVGQSYHEVAQCVNNTNPHSRADQDCYISFNRQLVESYGANLQNAATLFSAEMMNIKNGEQFLSYNKSVHRTVMTRLHDVLKMAQRTRDLGDDVKAELKKATSCRKVVSRKEAKYIRKGRPLTESKLYVRQSERMRKHDQAYEAKLRTFDTEYESLMQRQLYVAGHTMDDFLDMNTVYLSHILKVLGCLAPNGAEAIQKMLDSGEKLSDLLGIAPEDQLGCRLRAQNVDVLNSSNVTPVKRGVGATPGKGTPAKSSCCGSSHNFTSYYQNRRQAALYVEGAPPTARALGEDSRGSSEPCQTLSETPERQLISNQTPLRATFGSAAICRAASHSYSAAEPAAPSPLQPPSFPAAVRRVDAAPVPYVKPLAIGLHASCGSPGTTTDAAKQTCPAGNAAPAAWVVKTGGRRGSVCDTTNSRTRVELSLGHAQFDDDNTAAGAPPAACLAPAPPPAQYSEERPMERPLGRSEVPAAQAAMFGLDVARSAAPFDDQLVADSCRRTSLLSLKPVALFPLDVSESSISRKVAPRTSAATTSVANPSTQQRSRRDRKKHKTTKVVAAARGVPLPGTASAPPDEDTMSRSTSTQSQEALESSIHGYHAAHYHCPPPQQLHNLKQHPQRDSAPVSLAHFQMELTGCSGDAPCQWRNDGLCSEAGGVSGRSQRLSTSYGLDSPTPTPQPFALGTHAWEDSQVRPCSSA | not soluble |
| MGSDKIHHHHHHMSESWVAVTGATGFIGNALLQSLIKEGWKVRALTRRARVDDESTQWIEGDLHDRDALRKLVTGVSAVVHCAGQVRGSSLESFVRTNVEGTANLMQASLEQNPPPRFLLVSSLAARQPELSWYATSKHMAERLIDERSAGMACAIFRPTAVYGPGDKEMSPLFRITRRGILPMVGQPEMRFGLLHVADLVAAITCWLSTAVPVQGTYELDDGMPGGYDSQAVATIAQEVWKRPVRCVFFPAPLVSLIANINLWSARMLSYSPMLTPGKVRELRHPDWVCDIDPLTRALPGWRPCIHLRDALPQAV | not soluble |
| MGSDKIHHHHHHMERVLIIGALTFVGYHLVNKMIAEEVEVYGLDFDEFDSMTKINEEKLLLIGRNALFTYYSIRDEDGWRSVEEEKFDAVYFCLYEPNQQRGFRNERVILQYLKRMIRLCEEHKVKLNLISSIEVGNADESENKRLFSKVEEGLKKGEVQYSVFRVPTLYGPWQPSFMMYHQLMLSELGEKECHYAGEENGSDLLYVEDVCEYLWENGMNEEHLGIYNLLSGKKSLWKKGMNLLRAEDKVNKENAEERDGAAEDILIKRNTPLEYGLNKQLAHMKKYKELYEG | not soluble |
| MGSDKIHHHHHHMSIIYRRRSIRKYQKKDVPDELVKEIIRAAMHAPSACNQQPWHFVVIRNEETKKKIAEIHPHAQMSAEAPVVILVCGDPTLEKCKGYWIQDCSAAVENLLLRATELGLGAVWCGVYPREERVKAFRELLGIPEHVVPFALVPVGYPAEHPVQVDRFKPERIHYEKW | not soluble |
| MSLKIGIVGPGAIGLLYTFYLQKSNQDVTLFTRTAKQAEELNETGVTCIRDGRCETVYPPVLPIESMVAQNLDYIFISVKQYHIDDVLPFVEGASSLIFLQNGMSHLQKMLKIGSENIAVGIVEHGAKKEGGHIVHHTGIGVTKFGVVCGQSIHFKKIFRYFPVTYFPVQIETDWEEIMHKKLVVNVCINPLTALLGVKNGELITNRFFYQMMEQVFQEVAFLIRGEKEMVWQMVRNVCEGTSRNTSSMLADVRANRQTEINAIVGYVLEEAKKQQLPVPTLQFLFDAIKGLETREGHHHHHH | not soluble |
| EDGRILKRFCQCEQRSLEQLMKDPLRPFVPAYYGMVLQDGQTFNQMEDLLADFEGPSIMDCKMGSRTYLEEELVKARERPRPRKDMYEKMVAVDPGAPTPEEHAQGAVTKPRYMQWRETMSSTSTLGFRIEGIKKADGTCNTNFKKTQALEQVTKVLEDFVDGDHVILQKYVACLEELREALEISPFFKTHEVVGSSLLFVHDHTGLAKVWMIDFGKTVALPDHQTLSHRLPWAEGNREDGYLWGLDNMICLLQGLAQS | soluble |
| LTFSLNFATSSKDSYGTGWLIDWKGDENKPSNTDPFLIYLATNLHVVDALRNPQDYEPYNKDSNGQDYGNRDITHFFALGKYTD | not soluble |
| MEGVKKIKNPSTVKDELLELMFRIYRSTNGKYPALEWVKRKPNPNDFDGFREVYEPFLKFRLSQEFDELYTYQKDNRIIGTIALVYKRIKEKGIWWVPEELMNEKVGLIEFFVVDPEFQGKGIGSTLLEFAVKRLRSLGKDPYVVTFPNLEAYSYYYMKKGFREIMRYKEFVILKFNHKKFQLEHHHHHH | not soluble |
| PEQDIVYISASSGSTGVPTASPFTQSDFDGWIDYEARQFWSSGMRPSDRYVHSLNFSLFIGGPCVLGAQKLGALTIHAGTIPSDRLLQILRQFQATVIWTTPSYAWYLGETAIKEGYDLRKDLAVRRIFVAGEPGGSIPETRNRIEQLWGASVYDYYGLSDIFGSCAGMCEQKE | not soluble |
| AHHHHHHGSEFFEVLKKRRSIRRFQDKPVPRELIEKLLEAAFLSPSSYNKRPCHFIVVDDREKLEALSKSKLGASGLKTAPVAIVVTADESKSDVWIEDASIAAEHIHLASYALGLASFWVQIRNRMHNETKTAEEYVRELLNIPENYRVLCIIGVGYPAEDKPPHGNEVFEWEKVSYNEFGKRFK | soluble |
| MGSDKIHHHHHHMLLSSDASAFLSPRTVQASRMKPLRIGLFTDTFLPDQNGIVTSVGLLSDELRARGHHVDVVAPFFPEQQDTRPDVRRAPSVRYIFLPTYRLAWPTRKDFEQKYDLIHTHTPLTLGLAGARLARKWDVPHVATYHTHIEAYTHYVPGLTLLQKHTRVVTRLMGLYYRRADAVITPTAAMLDVTREMGVRNPVVIPTSVKPEVLQAAPPVENPWPAGTRRLLTVGRLAREKRFDLVLDTLANLPDAHLVVLGEGPEREHLIRHAERLGVAARVSFLGVKPWTEIGAYYRLAELFLFASDTETQGLVLQEAQLMGVPVIAVGARGTLSGVAQGRSGYLVAPGDVAALTRHAQAILADGQLWRRLSEGARAFGAAWTPGGVAERVLDVYASVLGVPREIPFPEAASPRNTLAYDR | not soluble |
| SMKEPSQQRVKRWGFGMDEALKDPVGREQFLKFLESEFSSENLRFWLAVEDLKKRPIKEVPSRVQEIWQEFLAPGAPSAINLDSKSYDKTTHNVKEPGRYTFEDAQEHIYKLMKSDSYPRFIRSSAYQELLQAKKKSGNSMDRRTS | soluble |
| SNAMGEAATKSDRQQNQTRLWLNILRLHGLVFGDLNRQLLDETGLSLAKFDAMAQLARNPDGLSMGKLSGALKVTNGNVSGLVNRLIKDGMVVKAMSADDRRSFSAKLTDAGLTTFKQASEAHNRILAELLRAVSDQDMVEASAALRGILESMQTGASLD | soluble |
| MGHHHHHHGGHMSLPNFFTPEFGPLRGVRVITTGSIIAGPTAGTILADLGAEVIHVERPKVGDTLRVVPPYFEADGKRIGGEFVCVTRNKLSVALDIKSEEGRKIFYELLKHADIFIENLVWLEERYGITDKDMLEANPRLVIVHVSGFGRSEFGGEDEKCGRGSYDIISQAYSGWCKLAAPPGMEVHRLPLYIGDYVTALFGVIGALSAYVYAKETGRGQVVDVAQFEAIARVIEMYYTMYHNLGINREGEGLRVFNTQPYGLYRVKDGWIAIGAIGPGLYQRFIQALAKATGINPADYPYEECAASPEAVNSEKGRELDRIFNEYLMSHTKEEVEKLFNAFRVPCSRVSTPEDVVRDRHWIERGDIIEVLDETTGRLVKQVGIVPKFSETPGRIWRGPPKLGSDTKKVLKGLLNLSDEQIDELKAKGVVDFEGGS | soluble |
| EVKGIGEYKILGESIDDAAGEAFDKTAKLMGLDYPGGPLLSKLAEKGTPGRFKFPRPMTNVPGLDMSFSGLKTFTANTIAANGDDEQTRADIAYAFEEAVCATLAIKCKRALEQTGMKRIVIAGGVSANRRLRAELEKLAKKIGGEVYYPRTEFCTDNGAMIAYAGMQRLKNGEVADMSVEARPRWPIDQLTPIA | not soluble |
| MSLKILILGGTRFLGRAFVEKALNRGYEVTLFNRGTNKEIFPEVEQLIGDRNGDVSSLENRKWDVVVDTCGFSPHHIRNVGEVLKDNIEHYIFISSLSVYKDWIPHHIKEDYILQPEPTAEQIKAVENGEVSPYEYYGALKVLCEKEAEKYWPGRVLHVRAGLLSGMFDYTDRLPYWIGRVAKGGEVLVPGRKDRPVQIVDIKDVANWGLNMAENNKAGIFNVTGPNYDLTMEELLNTCKKVTNSDAEFVWIEESFMNEHKVQPWTEMPLWIPETFSLEGETKPWKGGFSISINSAIKAGLTFRRLEDTVMDVYVWMKSIEEWELKAGISGEREKELLEKWYQEGHHHHHH | soluble |
| MSLTRNRTVALAIIDMQNDFVLPGAPACVEGAMGTVPVIAGLLAKARAEGWMVLHVVRAHRADGSDAEKSREHLFLEGGGLCVAGTPGAEIVAGLEPASGETVLVKTRFSAFMGTECDMLLRRRGVDTLLVSGTQYPNCIRGTAVDAFALDYDVVVVTDACSARTPGVAESNINDMRAMGITCVPLTALDDVLARRPVPSGPPPREGHHHHHH | soluble |
| GPPTRRSDFRVLVSGLPPSGSWQDLKDHMREAGDVCYADVQKDGMGMVEYLRKEDMEYALRKLDDTKFRSHEGETSYIRVYPERS | soluble |
| MGSDKIHHHHHHESDLEQVTYSSENAIPSTLSSLNDNYILESKNASQEAFTLTWSHPDLGYQASVINSLEMDVKDKNFANKVILASSKTDVSHTITVSDLNSKIMALLKVYEMETAPIGIEFRISSSISAAADTLYSNIVSTTITPYEGEPEYPAITLRGSYNGWDFTKSQKVYSVNSDNIYAAMVYFDGKAADGWKFCGTEDWSTDNWGAPESMTPEQSPVTLVSGNGGDIKAYSKNSYYLEFNNTTGELKVSKPHNSWGIVGDHNSWGSGDTMMTLETETDENNKFQYYLKATLDMSAGNKWKIRPEEKWEDDIAPGAVEGEFEDAGDGNFKVSEAGNYTIKWYFNKVTPKIIVVKNK | not soluble |
| MGSDKIHHHHHHMSDKHYDALPKAHTTYANIVKSLLPIGNNGKISRDELPQATYFVDDLHIDQNNLNDYRKICGFADNGNVPITYFSVLSQALQMNMMVKEPFPFAMLGLVHVDNSVTQYRAIGEIETVAMSVMFDNLRDHAQGQQFDFVTTVKSADEIIWEGTSTYLSRSKKPATSKDKKSTPRPVTVKPSINKEGVHSIFEVPEDIGRRYAFVSGDFNLIHLHPLSARAFGFPKAIAHGMWSKAKCLAMMGELPDACTVEVSFKLPIFLPSEVELITDPLAQLSSTEDTCQFGLFSAKNDKPHLAGVIALRDENK | not soluble |
